Experimental data published in the supplement of paper PMC10724198.
± gives the standard deviation of the averaged measurements.

Each sequence was assayed on Saccharomyces cerevisiae (assay: protein stability index of tFT-peptide fusion (C-terminal peptide) (PSI (0-1 scale)); higher = more stable (slower turnover)). Settings: genetic background: wild type; temperature: 30 C.
Experimental: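 Multiplexed protein stability (MPS) profiling in S. cerevisiae. Random 12-aa peptides (tFT-X12 library) are fused to the C-terminus of a sfGFP-mCherry tandem fluorescent timer, after mCherry and a GGGS linker. Cells are FACS-sorted into 8 mCherry/sfGFP bins and deep-sequenced. The protein stability index (PSI) is the read-weighted bin average, scaled from 0 (unstable) to 1 (stable). Only peptides with >10 reads are reported; cells were grown at 30 °C in SC-His with glucose.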
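Note: PSI is a weighted mean of sequencing reads over stability bins, variants kept only with over 10 reads, mCherry proximal and sfGFP distal, peptide attached via GGGS linker.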

| Sequence | protein stability index |
| --- | --- |
| AAARTGIATLRT | 0.691 ± 0.01 |
| AAGCSSGQAQFG | 0.727 ± 0.09 |
| AAGPGRWRWRGA | 0.643 ± 0.0093 |
| AAGWLWVWGVEG | 0.6429 ± 0.0017 |
| AAHRRRRSPPRP | 0.5909 ± 0.0014 |
| AALHPLRISASV | 0.646 ± 0.081 |
| AALIHLSFYSPS | 0.67 ± 0.02 |
| AALTPSCPLHLP | 0.713 ± 0.024 |
| AAMKQAIKGPVK | 0.696 ± 0.019 |
| AAPRPYRPCYPN | 0.664 ± 0.029 |
| AAVLSYLKHLFV | 0.627 ± 0.022 |
| AAVSSDASVLRF | 0.628 ± 0.027 |
| ACGAWAVVGLLG | 0.679 ± 0.042 |
| ACGDRGGRCSEG | 0.678 ± 0.089 |
| ACPGGPFALRSH | 0.666 ± 0.029 |
| ACRVAVGRLFGS | 0.717 ± 0.037 |
| ACSHFLEEFCFF | 0.75 ± 0.046 |
| ACVSGSGLCLFV | 0.694 ± 0.04 |
| ADAKVGVIWVAL | 0.628 ± 0.08 |
| ADCRSRPMREGS | 0.665 ± 0.036 |
| ADMPPEFKPALS | 0.637 ± 0.073 |
| ADSGAHTISTVC | 0.663 ± 0.01 |
| ADWTATTDPTST | 0.748 ± 0.019 |
| AEAKRKSTYKRW | 0.607 ± 0.026 |
| AEERATKNGARQ | 0.67 ± 0.055 |
| AEGKGRCRRSCW | 0.693 ± 0.072 |

| Sequence | protein stability index |
| --- | --- |
| AERCVLEKSPRL | 0.743 ± 0.064 |
| AFDKDLLGMMFS | 0.692 ± 0.024 |
| AFDRVPLVFVST | 0.564 ± 0.011 |
| AFFLDKASQLES | 0.694 ± 0.05 |
| AGALGADRWGLK | 0.741 ± 0.0085 |
| AGAWLVDAAVGV | 0.612 ± 0.017 |
| AGAWVREVVGWG | 0.707 ± 0.014 |
| AGERQIRISING | 0.691 ± 0.031 |
| AGFGLRGWMIPP | 0.68838 ± 0.00018 |
| AGGGLGGVGDVV | 0.681 ± 0.052 |
| AGGRGNVGGVHV | 0.679 ± 0.048 |
| AGGSTGMGARSR | 0.688 ± 0.015 |
| AGGTRRRTGRRR | 0.7019 ± 0.0024 |
| AGHTTVTNPLPQ | 0.738 ± 0.079 |
| AGLACWGGVGER | 0.693 ± 0.0079 |
| AGLLLGGRVFGW | 0.708 ± 0.067 |
| AGLPEKARDRGS | 0.638 ± 0.045 |
| AGLRRLRDFGSN | 0.726 ± 0.037 |
| AGLSVRSILLSI | 0.599 ± 0.039 |
| AGPPPIFGHHTQ | 0.765 ± 0.036 |
| AGSRPCPGWPPG | 0.691 ± 0.011 |
| AGVECADRVLWG | 0.774 ± 0.066 |
| AGVGVSSSLLPL | 0.664 ± 0.025 |
| AGWGWGARQGAL | 0.659 ± 0.037 |
| AGWPWAGRSCWG | 0.728 ± 0.044 |
| AHGRFTISLAGL | 0.743 ± 0.057 |

| Sequence | protein stability index |
| --- | --- |
| AHSSPMGYLPPF | 0.693 ± 0.11 |
| AHYPGRAHLLCL | 0.607 ± 0.02 |
| AIIERVEQIVTA | 0.522 ± 0.052 |
| AISVCCFLCEFF | 0.509 ± 0.023 |
| AIVRFAPWPVPR | 0.701 ± 0.043 |
| AKKAEKQKKEKT | 0.82 ± 0.019 |
| AKLFSEGLQMHH | 0.729 ± 0.049 |
| AKNQSTGCKKKV | 0.684 ± 0.043 |
| AKQVVGASWIVA | 0.607 ± 0.044 |
| AKRRTNRLHCNA | 0.6427 ± 0.0029 |
| AKVRGGKGLRLV | 0.6687 ± 0.003 |
| ALAPSAFSSSPL | 0.6645 ± 0.0022 |
| ALAQSGNVVLDR | 0.751 ± 0.1 |
| ALASPAPLPRRD | 0.7561 ± 0.0057 |
| ALATPLWDLMPP | 0.606 ± 0.072 |
| ALCLDGCSLGEF | 0.704 ± 0.017 |
| ALEAAWGGLGGS | 0.695 ± 0.013 |
| ALFPRLVRPGFV | 0.697 ± 0.036 |
| ALGPPAPGPCRA | 0.654 ± 0.021 |
| ALGVGLDEILVM | 0.556 ± 0.0093 |
| ALLMDENTRVLF | 0.649 ± 0.051 |
| ALLPSAWPFRPP | 0.611 ± 0.044 |
| ALLTPPPLPPTV | 0.61 ± 0.061 |
| ALPLSPRTHRCS | 0.503 ± 0.097 |
| ALRGWIRRRFPV | 0.671 ± 0.03 |
| ALRPLLGRDHKV | 0.68 ± 0.042 |

| Sequence | protein stability index |
| --- | --- |
| ALRVAVIANMRV | 0.5724 ± 0.0057 |
| ALRVGTGTVRFE | 0.712 ± 0.051 |
| ALSCLVCLFGLL | 0.545 ± 0.054 |
| ALSDPDTVRLYA | 0.7107 ± 0.0032 |
| ALSPPPSLRLPF | 0.7388 ± 0.0023 |
| ALSVSLFKDGLF | 0.672 ± 0.063 |
| ALTFYYRGWSGL | 0.619 ± 0.019 |
| ALWALSTHHVRK | 0.73866 ± 0.00051 |
| ANSRVVSFRLSG | 0.693 ± 0.047 |
| APAPPPSPPLPS | 0.68 ± 0.0081 |
| APAPTLPALPPL | 0.745 ± 0.026 |
| APARPCPLLSTS | 0.612 ± 0.034 |
| APASSSAHTPFP | 0.723 ± 0.019 |
| APAVPITPPPFP | 0.696 ± 0.05 |
| APGPAAPGHGYL | 0.744 ± 0.039 |
| APKVICPHLIRL | 0.68 ± 0.013 |
| APLPPLYPPSPP | 0.648 ± 0.065 |
| APLPPPPDPPLP | 0.695 ± 0.025 |
| APLPPPRPPPSP | 0.657 ± 0.081 |
| APPLPTHYCPHL | 0.841 ± 0.23 |
| APPPAPPPPPQT | 0.662 ± 0.0089 |
| APPPFRAPPGFR | 0.845 ± 0.093 |
| APPPPPIPAPPP | 0.714 ± 0.038 |
| APPPPPVPLPPP | 0.722 ± 0.024 |
| APPPPRAPTPPP | 0.696 ± 0.011 |
| APPPSPLPLPSL | 0.689 ± 0.08 |

| Sequence | protein stability index |
| --- | --- |
| APPPSPSPPPPL | 0.712 ± 0.039 |
| APPRLTTLSMNL | 0.696 ± 0.0073 |
| APPRPPTLHRPH | 0.721 ± 0.0085 |
| APPTSPLPIPSP | 0.698 ± 0.017 |
| APRHSSLHPAPS | 0.6986 ± 0.0029 |
| APRPPSLSPSPP | 0.681 ± 0.0076 |
| APRPSPRPTPPS | 0.662 ± 0.078 |
| APRRAPSRRIRL | 0.748 ± 0.016 |
| APSDRRRTPTPT | 0.69 ± 0.013 |
| APSLPPVVQPLI | 0.663 ± 0.023 |
| APSPLHFPPPPT | 0.67 ± 0.0048 |
| APSPPSSPSAPP | 0.643 ± 0.052 |
| APSVSKNSEVRK | 0.681 ± 0.019 |
| APTPPPPSPLAP | 0.73 ± 0.051 |
| AQDECVMVWYVG | 0.651 ± 0.013 |
| AQDSFGFPPPPS | 0.726 ± 0.018 |
| AQPIPTLYRAPP | 0.729 ± 0.049 |
| AQRNSPIVLAVL | 0.527 ± 0.0063 |
| ARAGQGEWGGGV | 0.701 ± 0.033 |
| ARALCYSFPPAL | 0.77 ± 0.1 |
| ARGALPHHVSCV | 0.691 ± 0.11 |
| ARGKYKKLKIKE | 0.733 ± 0.018 |
| ARIQECLTKASK | 0.607 ± 0.095 |
| ARLCLVRTKRHS | 0.684 ± 0.044 |
| ARLGNPHFKIFS | 0.684 ± 0.089 |
| ARLPCVVFLLDE | 0.666 ± 0.036 |

| Sequence | protein stability index |
| --- | --- |
| ARPASGCFCLFR | 0.655 ± 0.071 |
| ARRPGGGRSGGN | 0.672 ± 0.039 |
| ARSSILRCRGYR | 0.747 ± 0.095 |
| ASAPPHVSAPSP | 0.654 ± 0.012 |
| ASGASEVGACAG | 0.685 ± 0.033 |
| ASGGIIRWGLWM | 0.694 ± 0.029 |
| ASGIYSRFSTSS | 0.624 ± 0.052 |
| ASLPPLSPPSSL | 0.71 ± 0.045 |
| ASMRIVWWFGML | 0.495 ± 0.047 |
| ASPAWYARGISR | 0.733 ± 0.033 |
| ASPLFFHPSAPH | 0.6891 ± 0.0046 |
| ASPLSIPPLSPS | 0.633 ± 0.073 |
| ASPPAYCPPPPP | 0.666 ± 0.039 |
| ASPPPPRISAWL | 0.7159 ± 0.0036 |
| ASPSYLFFLLPC | 0.5788 ± 0.0018 |
| ASQSFSFITFTY | 0.645 ± 0.056 |
| ASRPAPPAPAFL | 0.675 ± 0.005 |
| ASRWVLLVGGGV | 0.652 ± 0.056 |
| ASSDRWVVYLYG | 0.685 ± 0.0083 |
| ASSLLPIPPPPF | 0.706 ± 0.012 |
| ASSLPIWLVWWL | 0.536 ± 0.02 |
| ASSSLLRCFSRF | 0.648 ± 0.062 |
| ASTRPFYVSSFG | 0.741 ± 0.13 |
| ATFSVMRGQHGQ | 0.686 ± 0.0057 |
| ATGFSLLDFSMP | 0.679 ± 0.069 |
